Data as given in the RNAGym collection of RNA variant scans (doi:10.7554/elife.80360).

B1: CPEB3 Ribozyme (parent)
chain: GGGGGCCACAGCAGAAGCGUUCACGUCGCGGCCCCUGUCAGAUUCUGGUGAAUCUGCGAAUUCUGCUGU

Variants of: B1
Test: self-cleavage, relative activity (ratio to wild type); higher = more cleavage; co-transcriptional

Variant | self-cleavage
GGGGGUCACAGCAGAAGCGUUCAUGUCGCGGCCCCUGUCAGAUUCUGGUGAAUCUGCGAAUUCUGCUGU [C6U C24U] | 0.709
GGGGGUCACAGCAGAAGCGUUCACGUAGCGGCCCCUGUCAGAUUCUGGUGAAUCUGCGAAUUCUGCUGU [C6U C27A] | 0.369
GGGGGUCACAGCAGAAGCGUUCACGUGGCGGCCCCUGUCAGAUUCUGGUGAAUCUGCGAAUUCUGCUGU [C6U C27G] | 0.199
GGGGGUCACAGCAGAAGCGUUCACGUCGGGGCCCCUGUCAGAUUCUGGUGAAUCUGCGAAUUCUGCUGU [C6U C29G] | 0.259
GGGGGUCACAGCAGAAGCGUUCACGUCGCGGGCCCUGUCAGAUUCUGGUGAAUCUGCGAAUUCUGCUGU [C6U C32G] | 0.246
GGGGGUCACAGCAGAAGCGUUCACGUCGCGGUCCCUGUCAGAUUCUGGUGAAUCUGCGAAUUCUGCUGU [C6U C32U] | 0.826
GGGGGUCACAGCAGAAGCGUUCACGUCGCGGCUCCUGUCAGAUUCUGGUGAAUCUGCGAAUUCUGCUGU [C6U C33U] | 0.863
GGGGGUCACAGCAGAAGCGUUCACGUCGCGGCCACUGUCAGAUUCUGGUGAAUCUGCGAAUUCUGCUGU [C6U C34A] | 0.426
GGGGGUCACAGCAGAAGCGUUCACGUCGCGGCCUCUGUCAGAUUCUGGUGAAUCUGCGAAUUCUGCUGU [C6U C34U] | 0.944
GGGGGUCACAGCAGAAGCGUUCACGUCGCGGCCCAUGUCAGAUUCUGGUGAAUCUGCGAAUUCUGCUGU [C6U C35A] | 0.189
GGGGGUCACAGCAGAAGCGUUCACGUCGCGGCCCCUGUGAGAUUCUGGUGAAUCUGCGAAUUCUGCUGU [C6U C39G] | 0.899
GGGGGUCACAGCAGAAGCGUUCACGUCGCGGCCCCUGUUAGAUUCUGGUGAAUCUGCGAAUUCUGCUGU [C6U C39U] | 0.955
GGGGGUCACAGCAGAAGCGUUCACGUCGCGGCCCCUGUCAGAUUAUGGUGAAUCUGCGAAUUCUGCUGU [C6U C45A] | 1.02
GGGGGUCACAGCAGAAGCGUUCACGUCGCGGCCCCUGUCAGAUUGUGGUGAAUCUGCGAAUUCUGCUGU [C6U C45G] | 1.02
GGGGGUCACAGCAGAAGCGUUCACGUCGCGGCCCCUGUCAGAUUUUGGUGAAUCUGCGAAUUCUGCUGU [C6U C45U] | 1
GGGGGUCACAGCAGAAGCGUUCACGUCGCGGCCCCUGUCAGAUUCUGGUGAAUAUGCGAAUUCUGCUGU [C6U C54A] | 0.847
GGGGGUCACAGCAGAAGCGUUCACGUCGCGGCCCCUGUCAGAUUCUGGUGAAUGUGCGAAUUCUGCUGU [C6U C54G] | 0.733
GGGGGUCACAGCAGAAGCGUUCACGUCGCGGCCCCUGUCAGAUUCUGGUGAAUCUGAGAAUUCUGCUGU [C6U C57A] | 0.362
GGGGGUCACAGCAGAAGCGUUCACGUCGCGGCCCCUGUCAGAUUCUGGUGAAUCUGGGAAUUCUGCUGU [C6U C57G] | 0.266
GGGGGUCACAGCAGAAGCGUUCACGUCGCGGCCCCUGUCAGAUUCUGGUGAAUCUGUGAAUUCUGCUGU [C6U C57U] | 0.363

Variant | self-cleavage
GGGGGUCACAGCAGAAGCGUUCACGUCGCGGCCCCUGUCAGAUUCUGGUGAAUCUGCGAAUUGUGCUGU [C6U C63G] | 0.808
GGGGGUCACAGCAGAAGCGUUCACGUCGCGGCCCCUGUCAGAUUCUGGUGAAUCUGCGAAUUUUGCUGU [C6U C63U] | 1.01
GGGGGUCACAGCAGAAGCGUUCACGUCGCGGCCCCUGUCAGAUUCUGGUGAAUCUGCGAAUUCUGAUGU [C6U C66A] | 0.881
GGGGGUCACAGCAGAAGCGUUCACGUCGCGGCCCCUGUCAGAUUCUGGUGAAUCUGCGAAUUCUGGUGU [C6U C66G] | 0.939
GGGGGUCACAGCAGAAGCGUUCACGUCGCGGCCCCUGUCAGAUUCUGGUGAAUCUGCGAAUUCUGUUGU [C6U C66U] | 0.991
GGGGGUCACACCAGAAGCGUUCACGUCGCGGCCCCUGUCAGAUUCUGGUGAAUCUGCGAAUUCUGCUGU [C6U G11C] | 0.828
GGGGGUCACAUCAGAAGCGUUCACGUCGCGGCCCCUGUCAGAUUCUGGUGAAUCUGCGAAUUCUGCUGU [C6U G11U] | 0.876
GGGGGUCACAGCAAAAGCGUUCACGUCGCGGCCCCUGUCAGAUUCUGGUGAAUCUGCGAAUUCUGCUGU [C6U G14A] | 0.672
GGGGGUCACAGCAGAAACGUUCACGUCGCGGCCCCUGUCAGAUUCUGGUGAAUCUGCGAAUUCUGCUGU [C6U G17A] | 0.315
GGGGGUCACAGCAGAACCGUUCACGUCGCGGCCCCUGUCAGAUUCUGGUGAAUCUGCGAAUUCUGCUGU [C6U G17C] | 0.0825
GGGGGUCACAGCAGAAGCAUUCACGUCGCGGCCCCUGUCAGAUUCUGGUGAAUCUGCGAAUUCUGCUGU [C6U G19A] | 0.117
GGGGGUCACAGCAGAAGCCUUCACGUCGCGGCCCCUGUCAGAUUCUGGUGAAUCUGCGAAUUCUGCUGU [C6U G19C] | 0.124
GGGGGUCACAGCAGAAGCGUUCACCUCGCGGCCCCUGUCAGAUUCUGGUGAAUCUGCGAAUUCUGCUGU [C6U G25C] | 0.13
GGGGGUCACAGCAGAAGCGUUCACGUCACGGCCCCUGUCAGAUUCUGGUGAAUCUGCGAAUUCUGCUGU [C6U G28A] | 0.0973
GGGGGUCACAGCAGAAGCGUUCACGUCCCGGCCCCUGUCAGAUUCUGGUGAAUCUGCGAAUUCUGCUGU [C6U G28C] | 0.0878
GGGGGUCACAGCAGAAGCGUUCACGUCGCAGCCCCUGUCAGAUUCUGGUGAAUCUGCGAAUUCUGCUGU [C6U G30A] | 0.632
GGGGGUCACAGCAGAAGCGUUCACGUCGCCGCCCCUGUCAGAUUCUGGUGAAUCUGCGAAUUCUGCUGU [C6U G30C] | 0.348
GGGGGUCACAGCAGAAGCGUUCACGUCGCUGCCCCUGUCAGAUUCUGGUGAAUCUGCGAAUUCUGCUGU [C6U G30U] | 0.235
GGGGGUCACAGCAGAAGCGUUCACGUCGCGCCCCCUGUCAGAUUCUGGUGAAUCUGCGAAUUCUGCUGU [C6U G31C] | 0.536
